From patent publication US20260184778A1 (REGENECORE BIOTECH, published 2026)
One block for each molecule: values may come before it.

How the values were obtained:
Assay in all cases: cell-based or functional assay
[1] = biological target: IL-5 (human, UniProt P05113 20-134)
[2] = biological target: T1, IL-4Rα (human, UniProt P24394 26-232, limits assumed)
[3] = biological target: T1, IL-4Rα; remark: listed apart in the source

Chain of IL-5 (P05113 20-134 limits assumed): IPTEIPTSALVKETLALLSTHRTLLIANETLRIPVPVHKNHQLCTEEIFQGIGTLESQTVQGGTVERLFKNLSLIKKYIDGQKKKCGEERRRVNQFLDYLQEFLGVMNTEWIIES

EC50 (nM), neutralizing IL-5-induced TF-1 cell proliferation (control) [1]: 0.108 nM
Molecule: hIgG (antibody)

EC50(nM), neutralizing IL-13-induced TF-1 proliferation [2]: 0.178 nM
EC50 (nM), neutralizing IL-4-induced TF-1 proliferation [3]: 0.13 nM
B1: dupilumab (Tab made by the applicant) (antibody, V domains shown)
VH: EVQLVESGGGLEQPGGSLRLSCAGSGFTFRDYAMTWVRQAPGKGLEWVSSISGSGGNTYYADSVKGRFTISRDNSKNTLYLQMNSLRAEDTAVYYCAKDRLSITIRPRYYGLDVWGQGTTVTVSS
VL: DIVMTQSPLSLPVTPGEPASISCRSSQSLLYSIGYNYLDWYLQKSGQSPQLLIYLGSNRASGVPDRFSGSGSGTDFTLKISRVEAEDVGFYYCMQALQTPYTFGQGTKLEIKR

EC50 (nM), neutralizing IL-5-induced TF-1 cell proliferation [1]: 0.122 nM
B2: reslizumab (Tab made by the applicant) (antibody, V domains shown)
VH: EVQLVESGGGLVQPGGSLRLSCAVSGLSLTSNSVNWIRQAPGKGLEWVGLIWSNGDTDYNSAIKSRFTISRDTSKSTVYLQMNSLRAEDTAVYYCAREYYGYFDYWGQGTLVTVSS
VL: DIQMTQSPSSLSASVGDRVTITCLASEGISSYLAWYQQKPGKAPKLLIYGANSLQTGVPSRFSGSGSATDYTLTISSLQPEDFATYYCQQSYKFPNTFGQGTKVEVK
